Consider 14 molecules from patent publication US20090304719A1 (University of California, published 2009).

One assay deals with T1, anti-VEGF scFv TBM.
T1 construct: The design included a His6 tag at the N-terminus and a TEV site; also called anti-VEGF single chain Fv
Description: FACS, peptide displayed on bacteria, anti-VEGF scFv; clones selected with labeled ranibizumab. The method, then: Ranibizumab was used to screen a pooled random peptide library, consisting of peptides that are X₁₅ (8.3×10⁹), X₄CX₇CX₄ (3.6×10⁹), or X₁₂CX₃ (1.1×10⁹), where X is any amino acid and the number represents the total diversity of the library. The total diversity of the pooled library was 1.3×10¹⁰. The screening consisted of one round of MACS and […] of FACS sorting. […] In the first FACS screen, positive cells isolated in the MACS screen were probed with 500 nM biotinylated-ranibizumab, and visualized with neutrAvidin-PE (Molecular Probes, Eugene, Oreg.). The second and third rounds of FACS selections were done with 500 nM and then 100 nM Alexa-labeled ranibizumab in the presence of 20 uM IgG. Individual clones were sequenced and subsequently verified for their ability to bind anti-VEGF scfv by FACS analysis.
Background: Flow cytometry measures light scatter and fluorescence of single cells or particles in a stream.

The target of assay [1] is T2, UC4F10-11 hamster anti-mouse CTLA4 antibody.
T2 construct: Whole antibody, biotinylated or Dylight-labeled in the sorts; also called mouse anti-CTLA4 antibody (clone UC4 F10-1); anti-CTLA4
T2 sequence (VH, as listed by the source limits assumed, chain 1 of 2): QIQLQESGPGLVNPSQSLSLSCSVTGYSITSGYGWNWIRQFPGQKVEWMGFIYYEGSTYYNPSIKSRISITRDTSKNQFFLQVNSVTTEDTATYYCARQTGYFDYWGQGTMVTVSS
T2 sequence (VL, as listed by the source limits assumed, chain 2 of 2): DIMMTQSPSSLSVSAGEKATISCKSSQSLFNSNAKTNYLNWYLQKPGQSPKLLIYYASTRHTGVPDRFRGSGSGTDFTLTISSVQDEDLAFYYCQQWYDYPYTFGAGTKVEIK
Description: bacterial display screening against anti-CTLA4 antibody; assay for this peptide not detailed.

Assay [2] has as its target T3, VEGF (UniProt P15692-4 27-191, limits assumed, biotinylated in the FACS assays (sites not given)).
T3 construct: Species and isoform are never stated; also called labeled VEGF; biotinylated VEGF
Description: Kd,app of VEGF binding to the construct displayed on E. coli, with MMP-2 against without (FIG. 13).

The target in assay [3] is T3, VEGF. Description: FACS, construct displayed on E. coli (CPX), labeled VEGF; with MMP-2 against without (FIG. 23). As to the method: (§1) In experiments involving addition of enzyme, 30 nM MMP-2 was included in the Tris-Cl buffer (no enzyme added to the control reaction), and the reaction mixture was incubated at room temperature for 2 hours. Cells were then removed and diluted 1:100 in PBS (pH 7.4) to stop the reaction, pelleted by centrifugation, and resuspended in 30 microliters of refrigerated PBS containing 25 nM biotinylated VEGF. After incubation in the refrigerator on a rotary shaker for 45 minutes, cells were pelleted at 4° C. and resuspended in refrigerated PBS containing 50 nM Streptavidin-Phycoerythrin fluorescent conjugate. After incubation in the refrigerator on a rotary shaker for 45 minutes, cells were pelleted at 4° C. and resuspended in PBS and red fluorescence was measured for analysis or sorting on a FACSAria cell sorter. The fluorescence of cells treated with enzyme was compared to control samples to determine the increase in VEGF binding.
(§2) In an additional experiment, the fluorescence values for a cysteine constrained loop structure were determined in the presence and absence of MMP-2 and compared with the fluorescence values for library clones 4.2A.11 (a.k.a. 4-2A-11) and 2.3B.5 (a.k.a. 2-3B-5) in the presence and absence of MMP-2.

The target of assay [4] is T3, VEGF. Description: FACS, construct displayed on E. coli (CPX), labeled VEGF; treated against untreated.
Assay [5] deals with T3, VEGF. Description: FACS, ABP displayed on E. coli (CPX), labeled VEGF; MMP-2 treated against untreated. As to the method: as §1
Assay [6] deals with T3, VEGF. Description: FACS, clone displayed on E. coli (CPX), labeled VEGF; with MMP-2 against without (FIG. 23). As to the method: as §1, §2
The target of assay [7] is T3, VEGF. Description: Kd,app of VEGF binding to the clone displayed on E. coli, with MMP-2 against without (FIG. 14).
In assay [8] the target is T3, VEGF. Description: SPR (Biacore), VEGF amine-coupled to a CM5 chip, soluble MBP fusion injected with and without 30 nM MMP-2 (FIG. 27). In general terms: In SPR one partner is held on a chip, and binding of the other changes the refractive index at the surface.
Description: VEGF was immobilized to the Biacore™ CM5 sensor chip surface using the standard amine coupling kit. An NHS/EDC mixture was injected first to activate the surface using the surface preparation wizard in the Biacore™ software. Then, 25 ug/mL concentration of VEGF was injected until the desired immobilization amount was reached (typically ˜5000 response units). The surface is then blocked with ethanolamine. A control reaction was performed on another surface with NHS/EDC then Ethanolamine.
After the VEGF is covalently immobilized, the maltose-binding protein (MBP) fusions of VEGF binding or VEGF binding ABP clones were injected over both the VEGF surface and the control surface. Injections were typically for 1 minute, with a few minutes of dissociation time after each injection. The clones were injected both with and without 30 nM MMP-2 enzyme. For analysis, the signal on the VEGF surface minus the signal on the control surface is the binding response (in RU).
The target of assay [9] is T3, VEGF. Description: FACS, construct displayed on E. coli (CPX), labeled VEGF; MMP-2 treated against untreated (FIG. 25). The method, then: as §1

Bridges are numbered along the chain shown (N, C = ends). Where no end group is shown, it is not given here. CPX = display scaffold, circularly permuted E. coli OmpX, fused C-terminal

T3 sequence (P15692 other isoform, or with tags, fused parts or gaps limits assumed): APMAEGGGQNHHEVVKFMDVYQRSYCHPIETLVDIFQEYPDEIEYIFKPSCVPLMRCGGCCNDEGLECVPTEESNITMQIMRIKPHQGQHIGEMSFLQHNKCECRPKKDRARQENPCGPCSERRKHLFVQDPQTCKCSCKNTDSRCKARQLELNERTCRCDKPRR
T1 sequence (scFv, as listed by the source): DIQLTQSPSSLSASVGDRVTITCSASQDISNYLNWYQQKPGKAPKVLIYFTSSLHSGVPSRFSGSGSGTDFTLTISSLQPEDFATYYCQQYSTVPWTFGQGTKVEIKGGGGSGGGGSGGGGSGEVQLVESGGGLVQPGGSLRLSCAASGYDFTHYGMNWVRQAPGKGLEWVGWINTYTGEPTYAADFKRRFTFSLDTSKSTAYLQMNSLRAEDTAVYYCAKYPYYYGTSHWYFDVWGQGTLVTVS

Regarding NVECCQNYNLWNCCGGR (also called 308 MM) [JS308], the binding result in the assay with anti-VEGF scFv TBM was “binds”.
For the molecule GAMACYNIFEYWCSAMK (also called 315 MM) [JS315], the binding result with anti-VEGF scFv TBM is given as “binds”.
Turning to VHAWEQLVIQELYHC (also called 311 MM) [JS311], the binding result with anti-VEGF scFv TBM is “binds”.
The same measure, in the same setting: the result for RPPCCRDYSILECCKSD [JS314] reads “binds”.
Consider PCSEWQSMVQPRCYY (also called MMneg) [Negative control MM (does not bind anti-CTLA4)], for which the binding result in assay [1] is listed as “no binding”.
For PCSEWQSMVQPRCYYGG [JS306], in the assay with anti-VEGF scFv TBM, the binding result is reported as “binds”.

B1: cysteine constrained loop ABP (designed binder)
chain: GQSGQGCGSGPLGLAGGGSGNFGYGKWEWDYGKWLEKVGGC-{CPX}
modifications: disulfide 7-41 (inferred); also: fused C-terminal to CPX display scaffold, letters not given here
notes: Tested untreated, after MMP-2 treatment and after DTT reduction; also called cysteine constrained parent; cysteine constrained loop structure; not shown: CPX display scaffold (circularly permuted E. coli OmpX), fused C-terminal of the ABP
With B1, in the assay with VEGF [2], the “fold improvement in Kd,app in the presence of MMP-2” value is roughly 3.4 fold. Also, the “fold increase in fluorescence in the presence of MMP-2” value in the assay with VEGF [3] was roughly 3 fold. Moreover, the fold switching activity with VEGF [4] was determined as 2 fold. Further, the “fold increase in fluorescence after MMP-2 treatment” value in the assay with VEGF [5] is roughly 2.6 fold.
Take GVGLCYTILEQWCEMGR (also called 313 MM) [JS313]: in the assay with anti-VEGF scFv TBM, the binding result is listed as “binds”.

B2: ABP library clone 4-2A-11 (designed binder)
chain: GQSGQGEDEEGPLGLAGGGSGNFGYGKWEWDYGKWLEKVGGG
notes: not shown: CPX display scaffold (circularly permuted E. coli OmpX), fused C-terminal of the ABP
Take B2: the “fold increase in fluorescence in the presence of MMP-2” value with VEGF [6] is roughly 5.7 fold.
For the molecule ATAVWNSMVKQSCYMQG (also called 283 MM) [JS283], the binding result in the assay with anti-VEGF scFv TBM is recorded as “binds”.
Still for that read-out and setting: for GHGMCYTILEDHCDRVR (also called 292 MM) [JS292] the value was “binds”.

B3: ABP library clone 2-2A-5 (designed binder)
chain: GQSGQPEWGCGPLGLAGGGSGNFGYGKWEWDYGKWLEKVGGC-{CPX}
modifications: disulfide 10-42 (inferred); also: fused C-terminal to CPX display scaffold, letters not given here
notes: Tested untreated, after MMP-2 and after DTT; not shown: CPX display scaffold (circularly permuted E. coli OmpX), fused C-terminal of the ABP
For B3, the “fold improvement in Kd,app in the presence of MMP-2” value with VEGF [7] is roughly 4.8 fold.

B4: maltose-binding protein (MBP) fusion of ABP clone 2.3B.5 (designed binder, not shown: large carriers; small tags and cut ends)
chain: CEYAFGPLGLAGGGSGNFGYGKWEWDYGKWLEKVGGC
modifications: also: fusion with maltose-binding protein (order not certain), disulfide Cys1–C-terminal Cys possible
notes: Soluble protein; the order MBP then ABP is my reading and is not certain; also called 2.3B.5 (2-3B-5) fusion; MBP-ABP fusion
On to B4, for which the “fold increase in binding response in the presence of MMP-2” value with VEGF [8] is roughly 4 fold.

B5: GS control (designed binder)
chain: GQSGQGGSGGSGGSGGSGGSPLGLAGGGSGNFGYGKWEWDYGKWLEKVGGG
modifications: also: fused C-terminal to CPX display scaffold, letters not given here
notes: Control lacking the cysteine-cysteine disulfide bond; also called GS control polypeptide; not shown: CPX display scaffold (circularly permuted E. coli OmpX), fused C-terminal of the construct
Regarding B5, in the assay with VEGF [9], the “fold increase in fluorescence after enzyme cleavage” value was less than 2 fold.
